From the supplement of paper PMC10724198 come the findings set out here.

± gives the standard deviation of the averaged measurements.
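Note: PSI is a weighted mean of sequencing reads over stability bins, variants kept only with over 10 reads, mCherry proximal and sfGFP distal, peptide attached via GGGS linker.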

The test system of this series is Saccharomyces cerevisiae. The series is described as follows: protein stability index of tFT-peptide fusion (C-terminal peptide) (PSI (0-1 scale)); higher = more stable (slower turnover). To be noted: genetic background: wild type; temperature: 30 C. How it is done:
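Multiplexed protein stability (MPS) profiling in S. cerevisiae. Random 12-aa peptides (tFT-X12 library) are fused to the C-terminus of a sfGFP-mCherry tandem fluorescent timer, after mCherry and a GGGS linker. Cells are FACS-sorted into 8 mCherry/sfGFP bins and deep-sequenced. The protein stability index (PSI) is the read-weighted bin average, scaled from 0 (unstable) to 1 (stable). Only peptides with >10 reads are reported; cells were grown at 30 °C in SC-His with glucose.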
EARMGGGRCGTG had a protein stability index of 0.684 ± 0.008.
On to EAWRQGRAGRGP, for which the protein stability index is 0.6148 ± 0.0034.
ECGGAVALSDRA returned a protein stability index of 0.7672 ± 0.0018.
ECPYFSHTPVAV came in with a protein stability index of 0.644 ± 0.032.
On to ECVERYLFGEGA, for which the protein stability index was 0.71403 ± 0.00042.
ECVGSSKVYMLL returned a protein stability index of 0.677 ± 0.092.
To ECYLYGSMDGFI belongs 0.588 ± 0.036.
To EDVEGVWVKGCE belongs 0.725 ± 0.17; to EEAGETAGGRRE, 0.648 ± 0.093; to EEGGEVREGKQA, 0.702 ± 0.019.
The sequence EEHVIQNIKCKN returned a protein stability index of 0.738 ± 0.037.
To EELGRGLESLGL belongs 0.699 ± 0.076; to EEPVVSNPPLLA, 0.688 ± 0.033; to EERNNQRKKRKG, 0.709 ± 0.038.
Regarding EERNSVRGYTES, the protein stability index was found to be 0.734 ± 0.028.
Take EESRVRTTNNTT: the protein stability index was 0.666 ± 0.057.
For EFFAPDVVALMR the value was 0.692 ± 0.17.
For EFPRHDLDCSLV the value was 0.7095 ± 0.00082; for EGAQVVLVRVGV, 0.547 ± 0.012; for EGDGLGWGGQGG, 0.67 ± 0.013.
Turning to EGDTPFKNRVKF, the protein stability index was 0.716 ± 0.061.
Sequence EGEEVNTGGEEA returned a protein stability index of 0.642 ± 0.017.
To EGEGPRGNGSGA belongs 0.648 ± 0.043.
Take EGGLDPFRVIMG: the protein stability index was 0.643 ± 0.029.
Sequence EGLCVLMTQVGG displayed a protein stability index of 0.576 ± 0.016.
With EGRCPAMRGAFG, the protein stability index was determined as 0.6797 ± 0.0041.
Turning to EGRPGGVGEGSQ, the protein stability index is 0.671 ± 0.011.
For EGSRRQERAGRQ the value was 0.6668 ± 0.0028; for EGTPGARSQGRE, 0.662 ± 0.035.
With EGVGRRICSPQA, the protein stability index was 0.648 ± 0.031.
To EGVVGGRWCGRG belongs 0.676 ± 0.082; to EGWLVDVDRIVG, 0.741 ± 0.076; to EHLQTHYLWSTG, 0.701 ± 0.062.
As for EIDAKNRDEETN, the protein stability index came out at 0.694 ± 0.019.
In turn, EILQDRAVSKGR registered a protein stability index of 0.697 ± 0.039.
For EITRRAQHWKAK the value was 0.708 ± 0.018; for EKEFLWKAISAV, 0.504 ± 0.016; for EKEKKKVHRQEE, 0.712 ± 0.059.
For EKGKGREIKKGE the value was 0.646 ± 0.048.
In the case of EKGRKKTYGDEK, the protein stability index stood at 0.669 ± 0.02.
For EKGSIYVVQYGK, the protein stability index was found to be 0.683 ± 0.022.
As to EKHNNNRYKQYL, the protein stability index is 0.7255 ± 0.0052.
Regarding EKKEHNHKVKYN, the protein stability index came to 0.626 ± 0.026.
Sequence EKKKKIKNKESI returned a protein stability index of 0.6932 ± 0.0036.
Turning to EKKKKKAKKEKN, the protein stability index came out at 0.764 ± 0.045.
For EKMDIEKKVEGS, the protein stability index came out at 0.812 ± 0.12.
To EKNRRCQKRKKK belongs 0.726 ± 0.054.
To EKQIREERRKIE belongs 0.704 ± 0.062.
With EKRDENENTNKK, the protein stability index was 0.66 ± 0.072.
To EKRERKRDSGHR belongs 0.685 ± 0.063; to EKTQQMPQPNNQ, 0.663 ± 0.007.
For EKTTDIKENERR the value was 0.692 ± 0.029.
For ELINQENQPAYE the value was 0.671 ± 0.038; for ELRCSRPIHSDF, 0.681 ± 0.013; for ELRISSTTVTSP, 0.664 ± 0.008.
Consider ELRTKRGASNPR, for which the protein stability index turned out to be 0.7097 ± 0.0021.
The sequence ELSNLRGLHTCT yielded a protein stability index of 0.654 ± 0.02.
For ELVSFPIGGMGS the value was 0.671 ± 0.056; for ENDRKKDKERIK, 0.678 ± 0.013; for ENKIKERPKMRY, 0.658 ± 0.026.
In the case of ENLVLRDRGRGM, the protein stability index worked out at 0.692 ± 0.017.
ENNKRRTKRHKE yielded a protein stability index of 0.62791 ± 0.00025.
For the sequence ENVINGLITIKK, the protein stability index was found to be 0.742 ± 0.039.
EPDCLVSSSVGI registered a protein stability index of 0.686 ± 0.049.
